We go through 2 molecules from patent US5723299, “Somatostatin receptors” (Arch Development Corporation, dated 1998).

Experiment [1] concerns the target human somatostatin receptor SSTR1 (human). The experiment is described as follows: competition of [125I]iodo-Tyr11-somatostatin-14 binding to CHO cells stably expressing human SSTR1.
Protocol: The resulting constructs were co-transfected with pSV2neo into the dihydrofolate reductase-deficient Chinese hamster ovary (CHO) cell line, DG44, using Lipofectin Reagent (GIBCO BRL, Gaithersburg, Md.). Stable transfectants were selected and maintained in α-MEM (GIBCO BRL) containing 400 vg/ml G418. Each cell line was grown to confluency in 6-well, 35-mm diameter plates at 37° C. The cells were washed with buffer containing 10 mM HEPES, 5 mM KH_2PO_4, 5 mM MgCl_2, 150 mM NaCl, and 1% (wt./vol.) bovine serum albumin (all at pH 7.4), and were stabilized in the same buffer for 30 min at 22° C. […] Incubated cells were washed twice with 2-ml portions of ice-cold buffer and were dissolved in 1 ml of 8M urea in 3M acetic acid. The suspended cells were transferred to a tube, the well was washed with 1 ml of the same solution, and the combined extracts were measured for radioactivity by use of a gamma-counter.
The pharmacological characteristics of SSTR1 were examined in CHO cells that were stably expressing this receptor.
Experiment [2] concerns the target T1, mouse somatostatin receptor SSTR2 (mouse).
T1 chain: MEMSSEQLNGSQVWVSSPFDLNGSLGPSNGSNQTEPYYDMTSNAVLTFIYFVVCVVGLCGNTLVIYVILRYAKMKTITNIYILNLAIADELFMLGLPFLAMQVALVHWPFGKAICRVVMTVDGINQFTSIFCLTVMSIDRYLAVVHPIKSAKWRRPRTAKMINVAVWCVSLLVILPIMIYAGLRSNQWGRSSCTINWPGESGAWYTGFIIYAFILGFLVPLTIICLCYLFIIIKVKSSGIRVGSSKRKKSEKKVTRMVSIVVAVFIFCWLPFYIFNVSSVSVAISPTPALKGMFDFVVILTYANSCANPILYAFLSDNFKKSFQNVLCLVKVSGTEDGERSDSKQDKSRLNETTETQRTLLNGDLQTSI
The experiment is described as follows: competition of [125I]iodo-Tyr11-somatostatin-14 binding to CHO cells transfected with mouse SSTR2.
Description: At 1.5 PstI/XmnI fragment of the human SSTR1 gene and a 1.2 kb XbaI fragment of the mouse SSTR2 gene were inserted into the mammalian expression vectors pCMV6b and 6c, respectively (a gift of Dr. B. Chapman, Chiron Corp., Emeryville, Calif.). The resulting constructs were co-transfected with pSV2neo into the dihydrofolate reductase-deficient Chinese hamster ovary (CHO) cell line, DG44, using Lipofectin Reagent (GIBCO BRL, Gaithersburg, Md.). Stable transfectants were selected and maintained in α-MEM (GIBCO BRL) containing 400 vg/ml G418. Each cell line was grown to confluency in 6-well, 35-mm diameter plates at 37° C. The cells were washed with buffer containing 10 mM HEPES, 5 mM KH_2PO_4, 5 mM MgCl_2, 150 mM NaCl, and 1% (wt./vol.) bovine serum albumin (all at pH 7.4), and were stabilized in the same buffer for 30 min at 22° C. […] Incubated cells were washed twice with 2-ml portions of ice-cold buffer and were dissolved in 1 ml of 8M urea in 3M acetic acid. The suspended cells were transferred to a tube, the well was washed with 1 ml of the same solution, and the combined extracts were measured for radioactivity by use of a gamma-counter.

No end group written: not given here.

Chain of human somatostatin receptor SSTR1 (human) (chain, as listed by the source): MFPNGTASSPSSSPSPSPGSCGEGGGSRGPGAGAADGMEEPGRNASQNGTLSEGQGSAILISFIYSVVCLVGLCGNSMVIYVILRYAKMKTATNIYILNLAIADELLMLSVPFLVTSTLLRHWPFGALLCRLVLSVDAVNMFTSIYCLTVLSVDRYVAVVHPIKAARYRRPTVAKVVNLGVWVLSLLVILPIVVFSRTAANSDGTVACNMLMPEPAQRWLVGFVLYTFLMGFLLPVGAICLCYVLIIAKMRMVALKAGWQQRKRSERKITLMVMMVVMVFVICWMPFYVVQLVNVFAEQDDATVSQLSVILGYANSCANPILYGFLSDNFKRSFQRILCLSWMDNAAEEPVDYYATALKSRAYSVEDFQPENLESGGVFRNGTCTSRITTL

B1: somatostatin-28 (peptide)
peptide: SANSNPAMAPRERKAGCKNFFWKTFTSC
B1 had an IC50 in experiment [1] of 4.7 nM. That is a single-digit nanomolar value.

B2: somatostatin-14 (peptide)
peptide: AGCKNFFWKTFTSC
modifications: not fully specified (bridges); cysteine pairing not given here
B2 registered an IC50 in experiment [2] of 1.6 nM.
